# Numbering of substitutions follows the chain as printed. Ends that are not written are not given here. FAM = 5,6-carboxyfluorescein
# T1: Nrd1 CID R28D (S. cerevisiae, UniProt P53617 1-153, R28D)
# T1 construct: the construct for anisotropy is made as described previously (Kubicek et al, 2012); also called CID(R28D)-His6; source: recombinant, produced and purified as described previously (Kubicek et al, 2012); plasmid with T7 promoter
# T1 sequence (looked up): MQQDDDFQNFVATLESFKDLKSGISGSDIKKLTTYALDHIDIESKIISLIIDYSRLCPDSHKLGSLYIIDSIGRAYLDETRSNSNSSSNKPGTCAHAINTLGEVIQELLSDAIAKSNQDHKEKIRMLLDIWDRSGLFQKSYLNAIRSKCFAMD
# T2: Nrd1 CID L20D (S. cerevisiae, UniProt P53617 1-153, L20D)
# T2 construct: the construct for anisotropy is made as described previously (Kubicek et al, 2012); also called CID(L20D)-His6; source: recombinant, produced and purified as described previously (Kubicek et al, 2012); plasmid with T7 promoter
# T2 sequence (looked up): T1 sequence (looked up) with L20D, D28R
# T3: Nrd1 CID I130K (S. cerevisiae, UniProt P53617 1-153, I130K)
# T3 construct: the construct for anisotropy is made as described previously (Kubicek et al, 2012); also called CID(I130K)-His6; source: recombinant, produced and purified as described previously (Kubicek et al, 2012); plasmid with T7 promoter
# T3 sequence (looked up): T1 sequence (looked up) with D28R, I130K
# T4: Nrd1 CID R133D (S. cerevisiae, UniProt P53617 1-153, R133D)
# T4 construct: the construct for anisotropy is made as described previously (Kubicek et al, 2012); also called CID(R133D)-His6; source: recombinant, produced and purified as described previously (Kubicek et al, 2012); plasmid made with QuikChange, T7 promoter
# T4 sequence (looked up): T1 sequence (looked up) with D28R, R133D
# T5: Nrd1 CID I130N (S. cerevisiae, UniProt P53617 1-153, I130N)
# T5 construct: the construct for anisotropy is made as described previously (Kubicek et al, 2012); also called CID(I130N)-His6; source: recombinant, produced and purified as described previously (Kubicek et al, 2012); plasmid with T7 promoter
# T5 sequence (looked up): T1 sequence (looked up) with D28R, I130N
# T6: Nrd1 CID R133A (S. cerevisiae, UniProt P53617 1-153, R133A)
# T6 construct: the construct for anisotropy is made as described previously (Kubicek et al, 2012); also called CID(R133A)-His6; source: recombinant, produced and purified as described previously (Kubicek et al, 2012); plasmid with T7 promoter
# T6 sequence (looked up): T1 sequence (looked up) with D28R, R133A
# T7: Nrd1 CID K21D (S. cerevisiae, UniProt P53617 1-153, K21D)
# T7 construct: the construct for anisotropy is made as described previously (Kubicek et al, 2012); also called CID(K21D)-His6; source: recombinant, produced and purified as described previously (Kubicek et al, 2012); plasmid with T7 promoter
# T7 sequence (looked up): T1 sequence (looked up) with K21D, D28R
# B1: Sen1 NIM peptide (Sen1 aa 2,052-2,063) (peptide, UniProt Q00416 2052-2063, looked up)
# peptide: {FAM}-DDDEDDYTPSIS
# notes: Sen1, S. cerevisiae, fragment harbouring aa 2,052-2,063; source: synthetic peptide
# Tests used:
# Assay in all cases: fluorescence polarisation; fluorescence anisotropy, equilibrium binding of Nrd1 CID variants to FAM-labelled NIM peptides; 10°C, 50 mM Na2HPO4, 100 mM NaCl, pH 8; 1:1 model with non-specific binding (DynaFit)
# Details in all cases: both partners purified
# Nrd1 CID R28D = biological target: T1, Nrd1 CID R28D
# Nrd1 CID L20D = biological target: T2, Nrd1 CID L20D
# Nrd1 CID I130K = biological target: T3, Nrd1 CID I130K
# Nrd1 CID R133D = biological target: T4, Nrd1 CID R133D
# Nrd1 CID I130N = biological target: T5, Nrd1 CID I130N
# Nrd1 CID R133A = biological target: T6, Nrd1 CID R133A
# Nrd1 CID K21D = biological target: T7, Nrd1 CID K21D
binder,measurement,setting,value
B1,Kd,Nrd1 CID R28D,78.2 ± 11.5 µM
same,Kd,Nrd1 CID L20D,16.9 ± 1.5 µM
same,Kd,Nrd1 CID I130K,36.7 ± 4.6 µM
same,Kd,Nrd1 CID R133D,2 ± 0.1 µM
same,Kd,Nrd1 CID I130N,8.9 ± 0.5 µM
same,Kd,Nrd1 CID R133A,1.8 ± 0.08 µM
same,Kd,Nrd1 CID K21D,8 ± 0.8 µM

# — publication PMC7110113, “Termination of non‐coding transcription in yeast relies on both an RNA Pol II CTD interaction domain and a CTD‐mimicking region in Sen1” (The EMBO Journal, 2020)
